Data from patent US20050048070A1 (published 2005).

Key:
[1] = molecular target: T1, K8(1-85)/K18(1-213) heterotypic complex (human, UniProt P05787 2-86; P05783 2-214); assay: heterotypic association assay: blotted K8 proteins incubated with purified K18(1-213), then stained with COU-1
T1 construct: Heterotypic complex of two GST fusion proteins; not shown: glutathione S-transferase (GST) fusion partner, modified pGEX-2T vector
T1 chain 1: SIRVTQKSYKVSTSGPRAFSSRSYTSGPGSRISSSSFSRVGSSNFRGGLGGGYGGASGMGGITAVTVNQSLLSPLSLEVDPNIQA
T1 chain 2: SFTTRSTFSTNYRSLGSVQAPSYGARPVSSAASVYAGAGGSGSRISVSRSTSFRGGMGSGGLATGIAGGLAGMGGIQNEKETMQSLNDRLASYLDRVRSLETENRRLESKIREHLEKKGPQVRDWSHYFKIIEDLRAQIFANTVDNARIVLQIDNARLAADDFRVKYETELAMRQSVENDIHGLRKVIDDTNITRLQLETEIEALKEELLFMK

[2] = molecular target: T2, intact K8/K18(1-65) heterotypic complex (human, UniProt P05787 2-483; P05783 2-66); assay: heterotypic association Western blot (K18 fragments on the membrane, incubated with purified intact K8)
T2 construct: Heterotypic complex of two GST fusion proteins; not shown: glutathione S-transferase (GST) fusion partner, modified pGEX-2T vector
T2 chain 1: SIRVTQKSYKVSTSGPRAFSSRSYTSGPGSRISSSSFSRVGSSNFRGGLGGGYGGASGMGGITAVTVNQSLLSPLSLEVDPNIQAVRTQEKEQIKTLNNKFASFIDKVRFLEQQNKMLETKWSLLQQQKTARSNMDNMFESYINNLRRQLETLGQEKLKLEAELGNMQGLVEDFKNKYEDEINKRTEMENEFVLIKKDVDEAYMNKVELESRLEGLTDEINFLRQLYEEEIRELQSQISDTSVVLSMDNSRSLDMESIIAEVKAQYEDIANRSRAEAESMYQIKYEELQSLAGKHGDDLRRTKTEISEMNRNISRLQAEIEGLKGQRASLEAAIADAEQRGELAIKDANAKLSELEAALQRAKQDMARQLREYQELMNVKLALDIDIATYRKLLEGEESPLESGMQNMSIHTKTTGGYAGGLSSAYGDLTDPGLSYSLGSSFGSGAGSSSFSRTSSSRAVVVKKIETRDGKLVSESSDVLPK
T2 chain 2: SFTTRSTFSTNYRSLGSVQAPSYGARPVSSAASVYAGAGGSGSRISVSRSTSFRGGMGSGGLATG

[3] = molecular target: T3, K8(1-85)/K18(1-187) heterotypic complex (human, UniProt P05787 2-86; P05783 2-188); assay: heterotypic association assay: blotted K8 proteins incubated with purified K18(1-187), then stained with COU-1
T3 construct: Heterotypic complex of two GST fusion proteins; not shown: glutathione S-transferase (GST) fusion partner, modified pGEX-2T vector
T3 chain 1: T1 chain 1
T3 chain 2: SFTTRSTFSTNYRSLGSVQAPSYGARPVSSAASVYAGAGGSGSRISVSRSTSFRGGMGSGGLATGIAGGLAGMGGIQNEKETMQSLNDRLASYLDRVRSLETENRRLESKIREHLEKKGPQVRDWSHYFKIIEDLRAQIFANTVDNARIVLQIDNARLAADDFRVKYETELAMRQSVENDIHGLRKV

K8 (1-233) = molecular target: T4, K8 (1-233); assay: Western blot of SDS-PAGE-separated K8 GST fusion proteins, stained with COU-1 alone
T4 construct: not shown: N-terminal GST carrier (modified pGEX-2T) and any linker
T4 chain: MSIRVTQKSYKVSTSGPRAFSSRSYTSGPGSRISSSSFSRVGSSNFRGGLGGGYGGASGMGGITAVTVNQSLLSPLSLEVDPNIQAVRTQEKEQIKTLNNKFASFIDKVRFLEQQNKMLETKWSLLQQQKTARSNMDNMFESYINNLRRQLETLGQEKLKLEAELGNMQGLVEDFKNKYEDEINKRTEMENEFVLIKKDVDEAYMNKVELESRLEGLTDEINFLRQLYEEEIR

K8 (1-403) = molecular target: T5, K8 (1-403); assay: as above
T5 construct: not shown: N-terminal GST and its linker (modified pGEX-2T)
T5 chain: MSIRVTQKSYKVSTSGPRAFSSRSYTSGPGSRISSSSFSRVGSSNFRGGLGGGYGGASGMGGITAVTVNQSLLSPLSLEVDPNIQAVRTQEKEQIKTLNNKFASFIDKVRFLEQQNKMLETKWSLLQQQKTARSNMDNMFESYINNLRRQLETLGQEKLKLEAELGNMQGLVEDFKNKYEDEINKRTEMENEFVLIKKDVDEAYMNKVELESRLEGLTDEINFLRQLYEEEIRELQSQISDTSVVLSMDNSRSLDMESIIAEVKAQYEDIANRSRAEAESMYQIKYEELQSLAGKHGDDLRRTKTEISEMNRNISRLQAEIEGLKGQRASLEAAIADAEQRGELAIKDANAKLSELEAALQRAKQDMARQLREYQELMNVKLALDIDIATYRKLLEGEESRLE

K8 (1-299) = molecular target: T6, K8 (1-299); assay: as above
T6 construct: not shown: N-terminal GST and its linker (modified pGEX-2T)
T6 chain: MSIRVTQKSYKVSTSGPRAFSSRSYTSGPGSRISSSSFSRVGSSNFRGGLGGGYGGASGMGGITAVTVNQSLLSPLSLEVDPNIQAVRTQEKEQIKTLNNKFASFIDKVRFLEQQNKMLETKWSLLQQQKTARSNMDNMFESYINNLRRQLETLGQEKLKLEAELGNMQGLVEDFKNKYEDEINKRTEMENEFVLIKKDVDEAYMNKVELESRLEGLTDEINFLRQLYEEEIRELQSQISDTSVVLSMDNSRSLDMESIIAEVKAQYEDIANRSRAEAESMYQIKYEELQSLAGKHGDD

B1: human monoclonal IgM antibody COU-1 (antibody, V domains shown)
VH: GAEVKKPGASVKVSCKASDYTFSSYYMHWVRQAPGQGLEWMGIINPSGGSTSYAQKFQGRVTMTRDTSTNTVYMELSSLRSEDTAVYYCARDQVVVAATLSNYGMDVWGQGTTVTVSS
VL: ELTQSPGTLSLSPGERATLSCRASQSVSSSYLAWYQQKPGQAPRLLIYDASNRATGIPARFSGSGSGTDFTLTISSLEPEDFAVYYCQQGTNWGIAFGQGTRLDIKR
notes: Human IgM with kappa light chain, secreted by hybridoma B9165 (ECACC 87040201), purified from culture supernatant; also called HMab COU-1; HuMab COU-1
- binding result [1]: no binding (tested: 5 µg/ml COU-1 (P-0285))
- binding result [2]: no binding (tested: COU-1 5 µg/ml)
- binding result [3]: no binding (tested: 5 µg/ml COU-1 (P-0285))
- binding result (K8 (1-233)): no binding (tested: 5 µg/ml COU-1 (P-0279))
- binding result (K8 (1-403)): no binding (tested: 5 µg/ml COU-1 (P-0279))
- binding result (K8 (1-299)): no binding (tested: 5 µg/ml COU-1 (P-0279))
